Results reported in PMC8754651 (2021).

B1: human TFIIH p62 PH domain (PH-D) (residues 1–108) (domain or fragment)
chain: MATSSEEVLLIVKKVRQKKQDGALYLMAERIAWAPEGKDRFTISHMYADIKCQKISPEGKAKIQLQLVLHAGDTTNFHFSNESTAVKERDAVKDLLQQLLPKFKRKAN

What was measured:
[1] = target: human RPB6 (residues 1–127), full-length (human, UniProt P61218 1-127); assay: NMR
[2] = target: B1; assay: ITC

Kd [1] [µM] | Kd [2] [µM] | Binder
4.13 | – | B1
– | 18.1 | MSDNEDNFDGDDADDVEEDEGLDD [human RPB6 (residues 1–24) F13A]
